T1: UL128 expressed from MVA in BHK-21 cells (human cytomegalovirus, UniProt P16837 28-171)
T1 construct: whole, on cells
T1 sequence: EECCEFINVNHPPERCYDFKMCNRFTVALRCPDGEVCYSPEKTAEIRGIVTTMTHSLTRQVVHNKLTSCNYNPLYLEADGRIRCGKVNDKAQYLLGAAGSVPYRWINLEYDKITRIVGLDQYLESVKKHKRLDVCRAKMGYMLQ


Legend:
gH of HCMV strain TR = gH of HCMV strain TR (human cytomegalovirus strain TR); experiment: cell-based or functional assay
gH of HCMV strain TB40/E = gH of HCMV strain TB40/E (human cytomegalovirus strain TB40/E); experiment: cell-based or functional assay
[1] = target: T1, UL128 expressed from MVA in BHK-21 cells; experiment: intracellular FC, MVA-infected BHK-21
[2] = target: T2, UL130 expressed from MVA in BHK-21 cells (human cytomegalovirus, UniProt P16772 1-214); experiment: intracellular FC, MVA-infected BHK-21
T2 construct: whole, on cells

[3] = target: T3, UL131A expressed from MVA in BHK-21 cells (human cytomegalovirus, UniProt F5HET4 19-129); experiment: intracellular FC, MVA-infected BHK-21
T3 construct: whole, on cells

[4] = target: T4, UL128/UL130 co-expressed from MVA in BHK-21 cells (human cytomegalovirus, UniProt P16837 28-171; P16772 1-214); experiment: intracellular FC, MVA-infected BHK-21
T4 construct: whole, on cells

[5] = target: T5, UL128/UL131A co-expressed from MVA in BHK-21 cells (human cytomegalovirus, UniProt P16837 28-171; F5HET4 19-129); experiment: intracellular FC, MVA-infected BHK-21
T5 construct: whole, on cells

[6] = target: T6, UL130/UL131A co-expressed from MVA in BHK-21 cells (human cytomegalovirus, UniProt P16772 1-214; F5HET4 19-129); experiment: intracellular FC, MVA-infected BHK-21
T6 construct: whole, on cells

[7] = target: T7, UL128/UL130/UL131A co-expressed from MVA in BHK-21 cells (human cytomegalovirus, UniProt P16837 28-171; P16772 1-214; F5HET4 19-129); experiment: intracellular FC, MVA-infected BHK-21
T7 construct: whole, on cells

[8] = target: T8, gH/gL/UL128/UL130/UL131A pentamer complex expressed from MVA-PC in BHK-21 cells (human cytomegalovirus, UniProt P12824 24-743; P16832 31-278; P16837 28-171; P16772 1-214; F5HET4 19-129); experiment: FC, biotinylated NAb titrated on MVA-PC-infected BHK-21 (cell surface PC)
T8 construct: whole, on cells

[9] = target: T8, gH/gL/UL128/UL130/UL131A pentamer …; experiment: FC competition, MVA-PC BHK-21; unlabelled row Ab; competitor: biotinylated 2-80; also: test concentration or dose not given here
[10] = target: T8, gH/gL/UL128/UL130/UL131A pentamer …; experiment: FC competition, MVA-PC BHK-21; unlabelled row Ab; competitor: biotinylated 21E9; also: test concentration or dose not given here
[11] = target: T8, gH/gL/UL128/UL130/UL131A pentamer …; experiment: FC competition, MVA-PC BHK-21; unlabelled row Ab; competitor: biotinylated AP86; also: test concentration or dose not given here
[12] = target: T8, gH/gL/UL128/UL130/UL131A pentamer …; experiment: FC competition, MVA-PC BHK-21; unlabelled row Ab; competitor: biotinylated 18F10
[13] = target: T8, gH/gL/UL128/UL130/UL131A pentamer …; experiment: FC competition, MVA-PC BHK-21; unlabelled row Ab; competitor: biotinylated 62-11; also: test concentration or dose not given here

Binder	IC50, inhibition of TR cell-to-cell spread in ARPE-19 (gH of HCMV strain TR) [µg/mL]	IC50, neutralization of TR infection of ARPE-19 (gH of HCMV strain TR) [µg/mL]	IC50, neutralization of TR infection of HUVEC (gH of HCMV strain TR) [µg/mL]	IC50, neutralization of TR infection of MRC-5 (gH of HCMV strain TR) [µg/mL]	IC50, inhibition of TB40/E cell-to-cell spread in ARPE-19 (gH of HCMV strain TB40/E) [µg/mL]	IC50, neutralization of TB40/E infection of ARPE-19 (gH of HCMV strain TB40/E) [µg/mL]	IC50, neutralization of TB40/E infection of CTB (gH of HCMV strain TB40/E) [µg/mL]	IC50, neutralization of TB40/E infection of HUVEC (gH of HCMV strain TB40/E) [µg/mL]	IC50, neutralization of TB40/E infection of MRC-5 (gH of HCMV strain TB40/E) [µg/mL]	binding result [1]	binding result [2]	binding result [3]	binding result [4]	binding result [5]	binding result [6]	binding result [7]	EC50 [8] [nM]	Binding Inhibition (%) [9] [%]	Binding Inhibition (%) [10] [%]	Binding Inhibition (%) [11] [%]	other results
2-80 (antibody, V domains shown, also called NAb 2-80) VH: QIQLVQSGPELKKPGETVKISCKASGYTFTNFGMNWVKQAPGKGLKWMGWINTYTGEPTYADDFKGRFAFSLETSASTASLQINNLKNEDTATYFCARRGDGLYSMDYWGQGTSVTVSS VL: DIVLTQSPASLAVSLGQRATISCRASESIDSYGNSFMYWYQQKPGQPPKLLIYRASNLESGIPARFSGSGSRTDFTLTINPVEADDVATYYCQQSNEDPLTFGAGTKLELK	398	2.12	2.54	1.72	> 400	1.43	> 50	1.41	1.6	no binding	no binding	no binding	no binding	no binding	no binding	no binding	2.8	100	100	0	Binding Inhibition (%) [12]: 0%; Binding Inhibition (%) [13]: 43%
21E9 (antibody, V domains shown, also called NAb 21E9) VH: QIQLVQSGPELKKPGETVKISCKASGYTFTIYGMNWVKQAPGKGLKWMGWINTYTGEPTYADDFRGRFAFSLETSASTAYLQINNLKNEDTATYFCARKGYYGSSGYFDYWGQGTTLTVSS VL: SIVMTQTPKFLLVSAGDRVTITCKASQSVSNDVSWYQQKPGQSPKLLIYYASNRYTGVPDRFTGSGYGTDFTFTISTVQAEDLAVYFCQQDYSSPWTFGGGTKLEIK	262	0.926	2.92	4.14	157	1.41	42.4	2.37	5.78	no binding	no binding	no binding	no binding	no binding	no binding	no binding	18	100	100	0	Binding Inhibition (%) [12]: 0%; Binding Inhibition (%) [13]: 32%
62-11 (antibody, V domains shown, also called NAb 62-11) VH: QVQLQQPGAELVRPGASVKLSCKASGYTFTSYWMNWVKQRPGQGLEWIGMIDPSDSETHYNQMFKDKATLTVDKSSSTAYMQLSSLTSEDSAVYYCSNGYSSFAYWGQGTLVTVSV VL: DVQMTQTTSSLSASLGDRVTISCSASQGISNYLNWYQQKPDGTVKLLIYDTSSLHSGVPSRFSGSGSGTDYSLTISNLEPEDIATYYCQQYSKLPYTFGGGTKLEIK	395	0.641	0.83	3.35	87	0.185	2.76	0.102	0.182	no binding	no binding	no binding	no binding	no binding	no binding	no binding	1.7	54	46	0	Binding Inhibition (%) [12]: 0%; Binding Inhibition (%) [13]: 100%
62-100 (antibody, V domains shown, also called NAb 62-100) VH: QVQLQQPGAELVRPGASVKLSCKASGYTFTSYWMNWVKQRPGQGLEWIGMIDPSDSETHYNQMFKDKATLTVDKSSSTAYMQLSSLTSEDSAVYYCSNGYSSFAYWGQGTLVTVSV VL: DIVLTQSPATLSVTPGDSVSLSCRASQSISNNLHWYQQKSHESPRLLIKYASQSISGIPSRFSGSGSGTDFTLSINSVETEDFGKYVCQQSNSWPLTFGSGTKLEIK	337	2.13	1.03	1.98	103	0.27	3.62	0.156	0.293	no binding	no binding	no binding	no binding	no binding	no binding	no binding	3.3	57	51	0	Binding Inhibition (%) [12]: 0%; Binding Inhibition (%) [13]: 100%

Reference: US20180230200A1 (CITY OF HOPE, published 2018)
